Measured values from publication PMC6631030, “Unraveling Sugar Binding Modes to DC-SIGN by Employing Fluorinated Carbohydrates” (Molecules, 2019).

Target: the molecule itself
Experiment: negative-stain TEM; purified refolded DC-SIGN ECD, negative staining, Jeol JEM-1230

B1: dendritic cell-specific intercellular adhesion molecule 3-grabbing non-integrin (DC-SIGN) full extracellular domain, tetramer (domain or fragment, UniProt Q9NNX6 70-404, looked up)
chain: EQSRQDAIYQNLTQLKAAVGELSEKSKLQEIYQELTQLKAAVGELPEKSKLQEIYQELTRLKAAVGELPEKSKLQEIYQELTWLKAAVGELPEKSKMQEIYQELTRLKAAVGELPEKSKQQEIYQELTRLKAAVGELPEKSKQQEIYQELTRLKAAVGELPEKSKQQEIYQELTQLKAAVERLCHPCPWEWTFFQGNCYFMSNSQRNWHDSITACKEVGAQLVVIKSAEEQNFLQLQSSRSNRFTWMGLSDLNQEGTWQWVDGSPLLPSFKQYWNRGEPNNVGEEDCAEFSGNGWNDDKCNLAKFWICKKSAASCSRDEEQFLSPAPATPNPPPA
notes: DC-SIGN, full extracellular domain (ECD), residues 70-404; the fragment was inserted in pET15b via NdeI and BamHI, and the protein was purified on mannose-Sepharose, not by a tag; The results call it 'tetrameric full-length DC-SIGN', the methods give the ECD 70-404; also called DC-SIGN tetramer; tetrameric DC-SIGN
In the case of B1, the “stoichiometry N” value is reported as 4.
